According to patent US20120276611A1 (GRIFOLS THERAPEUTICS, published 2012):

Experiments:
α2-antiplasmin [1] = target: T1, α2-antiplasmin (UniProt P08697 40-491, limits assumed); assay: enzyme mixed with α2-antiplasmin, residual S-2251 activity at time points (Wiman and Collen); 22° C., PBS pH 7.4
T1 construct: also called α2-AP
T1 sequence (looked up): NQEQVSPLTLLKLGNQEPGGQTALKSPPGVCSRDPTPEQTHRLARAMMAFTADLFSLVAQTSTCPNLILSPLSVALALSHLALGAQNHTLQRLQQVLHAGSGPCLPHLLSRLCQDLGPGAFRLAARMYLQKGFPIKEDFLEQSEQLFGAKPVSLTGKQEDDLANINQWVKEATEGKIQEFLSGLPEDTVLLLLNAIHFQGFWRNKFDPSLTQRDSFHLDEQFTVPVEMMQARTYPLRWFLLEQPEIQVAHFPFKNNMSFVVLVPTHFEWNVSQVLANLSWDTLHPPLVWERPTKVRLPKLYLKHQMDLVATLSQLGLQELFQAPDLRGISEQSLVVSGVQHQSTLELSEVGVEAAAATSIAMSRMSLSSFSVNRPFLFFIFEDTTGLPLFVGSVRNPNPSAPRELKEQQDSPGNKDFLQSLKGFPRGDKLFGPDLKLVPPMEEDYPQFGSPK
Experimental: TABLE 3 Inhibition rates for various plasmin species and inhibitors were determined at 22° C. in PBS buffer, pH 7.4.

α2-antiplasmin [2] = target: T1, α2-antiplasmin; assay: inhibition rates by α2-antiplasmin compared (residual S-2251 activity)

B1: mini-plasmin (enzyme)
chain: VAPPPVVLLPDVETPSEEDCMFGNGKGYRGKRATTVTGTPCQDWAAQEPHRHSIFTPETNPRAGLEKNYCRNPDGDVGGPWCYTTNPRKLYDYCDVPQCAAPSFDCGKPQVEPKKCPGRVVGGCVAHPHSWPWQVSLRTRFGMHFCGGTLISPEWVLTAAHCLEKSPRPSSYKVILGAHQEVNLEPHVQEIEVSRLFLEPTRKDIALLKLSSPAVITDKVIPACLPSPNYVVADRTECFITGWGETQGTFGAGLLKEAQLPVIENKVCNRYEFLNGRVQSTELCAGHLAGGTDSCQGDSGGPLVCFEKDKYILQGVTSWGLGCARPNKPGVYVRVSRFVTWIEGVMRNN
notes: also called mini-plasmin (K5-SP)
inhibition rate (second-order rate constant) (α2-antiplasmin [1]): 240000 M⁻¹ s⁻¹

B2: micro-plasmin (enzyme, UniProt P00747 562-810, looked up)
chain: APSFDCGKPQVEPKKCPGRVVGGCVAHPHSWPWQVSLRTRFGMHFCGGTLISPEWVLTAAHCLEKSPRPSSYKVILGAHQEVNLEPHVQEIEVSRLFLEPTRKDIALLKLSSPAVITDKVIPACLPSPNYVVADRTECFITGWGETQGTFGAGLLKEAQLPVIENKVCNRYEFLNGRVQSTELCAGHLAGGTDSCQGDSGGPLVCFEKDKYILQGVTSWGLGCARPNKPGVYVRVSRFVTWIEGVMRNN
notes: domain: serine protease domain; also called micro-plasmin (lacking all five kringles)
inhibition rate (second-order rate constant) (α2-antiplasmin [1]): 180000 M⁻¹ s⁻¹

B3: (TAL6003)-plasmin (enzyme)
chain: MRDVVLFEKKVYLSECKTGNGKNYRGTMSKTKNGITCQKWSSTSPHRPRFSPATHPSEGLEENYCRNPDNDPQGPWCYTTDPEKRYDYCDVPQCAAPSFDCGKPQVEPKKCPGRVVGGCVAHPHSWPWQVSLRTRFGMHFCGGTLISPEWVLTAAHCLEKSPRPSSYKVILGAHQEVNLEPHVQEIEVSRLFLEPTRKDIALLKLSSPAVITDKVIPACLPSPNYVVADRTECFITGWGETQGTFGAGLLKEAQLPVIENKVCNRYEFLNGRVQSTELCAGHLAGGTDSCQGDSGGPLVCFEKDKYILQGVTSWGLGCARPNKPGVYVRVSRFVTWIEGVMRNN
notes: also called recombinant (TAL6003)-plasmin
fold faster inhibition than micro-plasmin or mini-plasmin (α2-antiplasmin [2]): 40 fold | inhibition rate (second-order rate constant) (α2-antiplasmin [1]): 1.8e+07 M⁻¹ s⁻¹
